From PMC5882710, “Amphotericin B-conjugated polypeptide hydrogels as a novel innovative strategy for fungal infections” (Royal Society Open Science, 2018) come the findings set out here.

SMILES strings stand for the structures. In brackets after ≈: the same amount, converted by molar mass.

A short description of series [1]: In vitro drug release of AmB or Dex from hydrogels. The series is classed as physicochemical. As to conditions: for final drug release percentage of AmB after 12 h: 0.3 ml PBS pH 7.4 containing trypsin 1 µg ml^−1, 37°C, HPLC-UV 383 nm; for final drug release percentage of AmB after 12 h / final drug release percentage of Dex after 12 h: n = 3; for constant release rate of AmB / final drug release percentage of Dex after 12 h / constant release rate of Dex: PBS pH 7.4 with trypsin 1 µg ml^−1, 37°C; for constant release rate of AmB / constant release rate of Dex: entire measurement period (12 h); for diffusion exponent n of AmB release (Mt/M∞ = k·t^n) / rate constant k of AmB release (Mt/M∞ = k·t^n) / diffusion exponent n of Dex release (Mt/M∞ = k·t^n) / rate constant k of Dex release (Mt/M∞ = k·t^n): fit of release data, PBS pH 7.4, 37°C; for final drug release percentage of Dex after 12 h: HPLC-UV 240 nm. On the procedure: The 2.0 wt%, 3.0 wt% and 4.0 wt% of Nap-AmB, Npx-AmB and Dex-AmB hydrogels within the 0.3 ml PBS solution containing trypsin (1 µg ml^−1) were prepared for drug release study. A quantity of 0.2 ml of the upper buffer solution was taken out and used to run HPLC at every 30 min and 0.2 ml of fresh PBS buffer solution containing trypsin (1 µg ml^−1) was added back each time. The experiments were conducted at 37°C. The areas of peaks in HPLC spectra were used to determine the percentage of AmB or Dex released from their corresponding hydrogels. The liquid chromatography system (Agilent 1200 series, America) comprised Degasser G1322A, Quaternary pump G1312B, Thermostated auto sampler HiP-ALS G1367C, column oven G1316A and ultraviolet detector G1314A. Separation was achieved using a SepaxGP-C18 reversed-phase column (250 mm × 4.6 mm internal diameter, 5 µm particle size) (America). The mobile phase of AmB analysis was acetonitrile-water (43 : 57, containing 0.05% TFA) at a flow-rate of 1 ml min^−1. Chromatography was carried out at 30°C and the detector wavelengths were set at 383 nm. The mobile phase of Dex analysis was acetonitrile-water (45 : 55, containing 0.05% TFA) at a flow rate of 1 ml min^−1. Chromatography was carried out at 30°C and the detector wavelengths were set at 240 nm. The experiment was conducted in three parallel experiments. […] Mt/M∞ is the fractional drug release, Mt is the amount of drug released at time t, M∞ is the maximum amount of drug released at time ∞, t is the release time, k is a rate constant of kinetic release and n is the diffusion exponent, characteristic of the drug release mechanism.

Series [2] has as its system Candida albicans. The series can be described thus: microbe, parasite or virus in culture. It counts as cell-based. To be noted: for MIC: 24 h; for MBC: 48 h. On the procedure: (§1) The minimum inhibitory concentration (MIC) of the Dex, AmB, Nap-FFDKY, Npx-FFDKY, Fmoc-FFDKY, Nap-AmB, Npx-AmB and Dex-AmB hydrogels was determined by a serial 2-fold dilution of test samples. Fourteen different concentrations of drugs and hydrogels were prepared in DMF solution. One millilitre of the fungal strain […] colony-forming unit (CFU)/tube was inoculated into each tube containing different concentrations (1 ml) of test samples and incubated at 28°C (200 rpm) for 24 h. The MIC was defined as the minimum concentration of the sample inhibiting the visible growth of the microorganism. The experiment was repeated at least three times. Based on the values of MIC, 0.1 ml of the fungal strain containing different concentrations of test samples which inhibited the visible growth of the microorganism was subcultivated on the Sabouraud's dextrose agar plates, and incubated at 28°C for 48 h. The minimum bactericidal concentration (MBC) determination was defined as the minimum concentration of the sample sterilizing the visible growth of the microorganism (lower than 5 CFU/plate). The experiment was repeated at least three times. Based on the values of MIC, the fungal strain containing 1 × MIC and 2 × MIC concentrations of test samples was incubated at 28°C. A test suspension containing 0.1 ml was taken out and used to evaluate fungus colonies at 0, 1, 2, 4, 6, 8, 12 and 24 h.

The test system of series [3] is Candida albicans. The experiment in a line: Time-kill curves at 1 x MIC and 2 x MIC. It counts as cell-based. To be noted: C. albicans, 28°C, n = 3; for time for which antifungal activity is exhibited in time-kill curves: sampled 0, 1, 2, 4, 6, 8, 12 and 24 h. On the procedure:
as §1

Series [4] is described as follows: Hydrogel formation (gelation time, minimum gel concentration). As to conditions: for minimum gel concentration needed for gelation: PBS solutions at 37°C; for gelation time: room temperature, PBS pH 7.4, 2 equiv. Na2CO3. It counts as physicochemical. The protocol:
General procedure for the formation of hydrogels: all the compounds dissolved in phosphate-buffered saline (PBS, pH 7.4). 2 equiv. of Na2CO3 (0.1 mol l^−1) were used to neutralize the carboxyl groups (─COOH) of compounds and adjust the pH to neutral. Then the hydrogels were formed at room temperature (22–25°C) or 37°C within 30 min.

The nature of series [5]: Solubility of hydrogelators in aqueous solutions. To be noted: water, PBS solutions (pH = 7.4) and culture solutions.

Consider `COc1ccc2cc([C@H](C)C(=O)N[C@@H](Cc3ccccc3)C(=O)N[C@@H](Cc3ccccc3)C(=O)N[C@@H](CC(=O)O)C(=O)N[C@@H](CCCCNC(=O)[C@H]3[C@@H]4C[C@@H](O[C@@H]5O[C@H](C)[C@@H](O)[C@H](N)[C@@H]5O)/C=C/C=C/C=C/C=C/C=C/C=C/C=C/[C@H](C)[C@@H](O)[C@@H](C)[C@H](C)OC(=O)C[C@H](O)C[C@H](O)CC[C@@H](O)[C@H](O)C[C@H](O)C[C@](O)(C[C@@H]3O)O4)C(=O)N[C@@H](Cc3ccc(O)cc3)C(=O)O)ccc2c1` [Npx-AmB], for which, in series [1] (2.0 wt% hydrogel), the “final drug release percentage of AmB after 12 h” value is reported as 30.0%, the “constant release rate of AmB” value is listed as “about 0.2406 mg ml^−1 per hour”, the “diffusion exponent n of AmB release (Mt/M∞ = k·t^n)” value (from here on “diffusion exponent n of AmB release”) is given as 0.7428 and the “rate constant k of AmB release (Mt/M∞ = k·t^n)” value (from here on “rate constant k of AmB release”) is recorded as “approximately 0.2846”. Also, in series [1] (3.0 wt% hydrogel), the “final drug release percentage of AmB after 12 h” value turned out to be 38.9%, the “constant release rate of AmB” value is recorded as around 0.4837 mg ml^−1 per hour, the “diffusion exponent n of AmB release” value was found to be 0.7784 and the “rate constant k of AmB release” value was around 0.3358. In series [1] (4.0 wt% hydrogel), the “final drug release percentage of AmB after 12 h” value is 51.3%, the “constant release rate of AmB” value is reported as around 0.8332 mg ml^−1 per hour, the “diffusion exponent n of AmB release” value is recorded as 0.7771 and the “rate constant k of AmB release” value is given as around 0.4387. Besides, in the series with Candida albicans [2], the MIC amounted to 43.7 µg/mL (≈ 23.8 µM) and the MBC is 349 µg/mL (≈ 190 µM). For the same compound, in the series with Candida albicans [3], the “speed of fungistatic effect in time-kill curves (in words)” value was “exert fungistatic effect more quickly than AmB and Nap-AmB hydrogels”; the “time for which antifungal activity is exhibited in time-kill curves” value was 2 h. In series [4], the “minimum gel concentration needed for gelation” value is given as around 1.0 wt% and the gelation time was determined as 10 min.

`C[C@@H]1[C@H](O)[C@@H](C)/C=C/C=C/C=C/C=C/C=C/C=C/C=C/[C@H](O[C@@H]2O[C@H](C)[C@@H](O)[C@H](N)[C@@H]2O)C[C@@H]2O[C@](O)(C[C@@H](O)C[C@@H](O)[C@H](O)CC[C@@H](O)C[C@@H](O)CC(=O)O[C@H]1C)C[C@H](O)[C@H]2C(=O)NCCCC[C@H](NC(=O)[C@H](CC(=O)O)NC(=O)[C@H](Cc1ccccc1)NC(=O)[C@H](Cc1ccccc1)NC(=O)Cc1ccc2ccccc2c1)C(=O)N[C@@H](Cc1ccc(O)cc1)C(=O)O` [Nap-AmB]: in series [1] (2.0 wt% hydrogel), the “final drug release percentage of AmB after 12 h” value was 36.3%, the “constant release rate of AmB” value is “about 0.3188 mg ml^−1 per hour”, the “diffusion exponent n of AmB release” value came to 0.6874 and the “rate constant k of AmB release” value is listed as “approximately 0.2503”. In series [1] (3.0 wt% hydrogel), the “final drug release percentage of AmB after 12 h” value is 47.3%, the “constant release rate of AmB” value is given as around 0.6114 mg ml^−1 per hour, the “diffusion exponent n of AmB release” value is listed as 0.5722 and the “rate constant k of AmB release” value was around 0.4662. Besides, in series [1] (4.0 wt% hydrogel), the “final drug release percentage of AmB after 12 h” value came to 62.1%, the “constant release rate of AmB” value is around 1.015 mg ml^−1 per hour, the “diffusion exponent n of AmB release” value is 0.5481 and the “rate constant k of AmB release” value was around 0.6379. Besides, in the series with Candida albicans [3], the “time for which antifungal activity is exhibited in time-kill curves” value was found to be 2 h. Besides, in series [4], the “minimum gel concentration needed for gelation” value is given as “about 0.5 wt%” and the gelation time was 3 min. In addition, in series [5], the “solubility in aqueous solutions (in words)” value is recorded as “highly soluble”.

As for `C[C@@H]1[C@H](O)[C@@H](C)/C=C/C=C/C=C/C=C/C=C/C=C/C=C/[C@H](O[C@@H]2O[C@H](C)[C@@H](O)[C@H](N)[C@@H]2O)C[C@@H]2O[C@](O)(C[C@@H](O)C[C@@H](O)[C@H](O)CC[C@@H](O)C[C@@H](O)CC(=O)O[C@H]1C)C[C@H](O)[C@H]2C(=O)NCCCC[C@H](NC(=O)[C@H](CC(=O)O)NC(=O)[C@H](Cc1ccccc1)NC(=O)[C@H](Cc1ccccc1)NC(=O)CCC(=O)OCC(=O)[C@@]1(O)[C@H](C)C[C@H]2[C@@H]3CCC4=CC(=O)C=C[C@]4(C)[C@@]3(F)[C@@H](O)C[C@@]21C)C(=O)N[C@@H](Cc1ccc(O)cc1)C(=O)O` [Dex-AmB], in series [1] (2.0 wt% hydrogel), the “final drug release percentage of AmB after 12 h” value is on record as 16.3%, the “final drug release percentage of Dex after 12 h” value is 28.5%, the “constant release rate of AmB” value is reported as “about 0.1123 mg ml^−1 per hour” and the “constant release rate of Dex” value was “about 0.08359 mg ml^−1 per hour”. For the same compound, in series [1] (2.0 wt% hydrogel), the “diffusion exponent n of AmB release” value came to 0.8265, the “diffusion exponent n of Dex release (Mt/M∞ = k·t^n)” value (“diffusion exponent n of Dex release” for short) came out at 0.4404, the “rate constant k of AmB release” value is recorded as “about 0.2283” and the “rate constant k of Dex release (Mt/M∞ = k·t^n)” value (“rate constant k of Dex release” below) is “approximately 0.1211”. In series [1] (3.0 wt% hydrogel), the “final drug release percentage of AmB after 12 h” value amounted to 19.2%, the “final drug release percentage of Dex after 12 h” value was 39.6%, the “constant release rate of AmB” value is given as around 0.1994 mg ml^−1 per hour and the “constant release rate of Dex” value was around 0.1743 mg ml^−1 per hour. Besides, in series [1] (3.0 wt% hydrogel), the “diffusion exponent n of AmB release” value worked out at 0.6474, the “diffusion exponent n of Dex release” value is given as 0.3576, the “rate constant k of AmB release” value is around 0.3669 and the “rate constant k of Dex release” value is listed as around 0.3039. Besides, in series [1] (4.0 wt% hydrogel), the “final drug release percentage of AmB after 12 h” value was found to be 24.4%, the “final drug release percentage of Dex after 12 h” value came to 46.8%, the “constant release rate of AmB” value is around 0.3517 mg ml^−1 per hour and the “constant release rate of Dex” value is reported as around 0.2867 mg ml^−1 per hour. In series [1] (4.0 wt% hydrogel), the “diffusion exponent n of AmB release” value is 0.7971, the “diffusion exponent n of Dex release” value is on record as 0.2587, the “rate constant k of AmB release” value was around 0.6436 and the “rate constant k of Dex release” value is recorded as around 0.6024. In the series with Candida albicans [2], this compound registered an MIC of 40.1 µg/mL (≈ 19.1 µM) and an MBC of 643 µg/mL (≈ 306 µM). In the series with Candida albicans [3], the “speed of fungistatic effect in time-kill curves (in words)” value was “exert fungistatic effect more quickly than AmB and Nap-AmB hydrogels”; the “time for which antifungal activity is exhibited in time-kill curves” value stood at 2 h. In addition, in series [4], the “minimum gel concentration needed for gelation” value was around 2.0 wt% and the gelation time entry is “approximately 30 min”. The “solubility in aqueous solutions (in words)” value in series [5] is recorded as “highly soluble”.
